Results reported in publication doi:10.1101/2024.12.01.626218, “TTF2 drives mitotic replisome disassembly and MiDAS by coupling the TRAIP ubiquitin ligase to Polε” (bioRxiv, 2024).
Values belong to the binder of their own block, whether it stands above or below them. Where no end group is shown, it is not given here. [ ]: non-standard residue; d: D form. pT = C[C@@H](OP(=O)(O)O)[C@H](N)C(=O)O

Experiments:
[1] = target: T1, His-SUMO-TTF2 1-100 (tandem zinc fingers) (Mus musculus, UniProt Q5NC05 1-100); assay: EMSA; 10 nM DNA; EMSA buffer (25 mM buffer component; full composition not in the material), 10 nM Cy5-DNA, 10 µl, room temperature, 10 min; Novex TBE 4-12% gel, 150 V, 40 min; conditions: protein: recombinant, tags: N-terminal 14His-SUMO (yeast Smt3)
T1 sequence: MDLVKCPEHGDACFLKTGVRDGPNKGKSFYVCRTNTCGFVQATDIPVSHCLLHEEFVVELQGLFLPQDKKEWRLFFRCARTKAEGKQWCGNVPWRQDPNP

[2] = target: the molecule itself; assay: mass photometry; Refeyn OneMP; TRAIP diluted to 6.4 ng/µl (~50 nM of TRAIP dimer); 25 mM Hepes-KOH pH 7.9, 150 mM NaCl, 10 mM MgOAc, 1 mM DTT
HisSUMO-TTF2 1-100 [3] = target: T2, HisSUMO-TTF2 1-100 (mouse, UniProt Q5NC05 1-100); assay: ITC; phosphorylated T325
T2 chain: T1 sequence

HisSUMO-TTF2 1-100 [4] = target: T3, HisSUMO-TTF2 1-100 (mouse, UniProt Q5NC05 1-100); assay: ITC; MicroCal PEAQ-ITC; 20 µM HisSUMO-TTF2 1-100 in the cell, 200 µM TRAIP peptide injected (19 x 2 µl); 50 mM Tris-HCl pH 7.5, 100 mM NaCl, 0.5 mM TCEP; conditions: both partners purified
T3 construct: mouse TTF2 residues 1-100 (tandem Zinc fingers); also called His-SUMO-tagged TTF2; recombinant form of TTF2 1-100; source: E. coli Rosetta (DE3) pLysS, purified (Ni-NTA, Superdex 200); not shown: 14His, N-terminal, kept; Smt3 (budding yeast SUMO), N-terminal, kept
T3 sequence (looked up): T1 sequence

B1: YX011 80-nt ssDNA (ssDNA)
DNA: CAGTGCCAAGCTTGCATGCCTGCAGGTCGACTCTAGAGGATCCCCGGGTACCGAGCTCGAATTCGTAATCATGGTCATAG
binding result ([1]; label: 5'-Cy5): no binding

B2: YX011/YX012 80-bp dsDNA (dsDNA)
DNA 1: B1 DNA
DNA 2: CTATGACCATGATTACGAATTCGAGCTCGGTACCCGGGGATCCTCTAGAGTCGACCTGCAGGCATGCAAGCTTGGCACTG
binding result ([1]; label: 5'-Cy5 on strand 1, blunt): no binding

B3: recombinant mouse TRAIP (enzyme, UniProt Q8VIG6-1 1-470, looked up)
chain: MPIRALCTICSDFFDHSRDVAAIHCGHTFHLQCLIQWFETAPSRTCPQCRIQVGKKTIINKLFFDLAQEEENVLDAEFLKNELDSVKAQLSQKDREKRDSQAIIDTLRDTLEERNATVESLQNALNKAEMLCSTLKKQMKFLEQRQDETKQAREEAHRLKCKMKTMEQIELLLQSQRSEVEEMIRDMGVGQSAVEQLAVYCVSLKKEYENLKEARKATGELADRLKKDLVSSRSKLKTLNTELDQAKLELRSAQKDLQSADQEITSLRKKLMILQGTLSLPPATNETVSRLVFESPAPVEMMNPRLHQPPFGDEIDLNTTFDVNTPPTQTSGSQHCLPKKLCLERARSPMQNVLKKVHKVSKPESQLSLGGQRCVGELDEELAGAFPLFIRNAVLGQKQPNRTTAESRCSTDVVRIGFDGLGGRTKFIQPRDTTIIRPVPVKSKAKSKQKVRIKTVSSASQPKLDTFLCQ
notes: Mw of the monomer 53.1 kDa; the tag was cut off with Ulp1; also called purified TRAIP; TRAIP ubiquitin ligase; source: E. coli Rosetta (DE3) pLysS, purified (Ni-NTA, HiTrapQ, HiTrap Heparin, Superose 6); not shown: 14His-Smt3 (budding yeast SUMO), N-terminal, cleaved
stoichiometry N [2]: 2

Kd (HisSUMO-TTF2 1-100 [3]): 2.3 µM
binding result (HisSUMO-TTF2 1-100 [4]): binds
B4: peptide corresponding to mouse TRAIP 313-329 with phosphorylated T325 (peptide)
peptide: FGDEIDLNTTFDVN[pT]PPTQ
modifications: not fully specified; printed as FGDEIDLNTTFDVN**T**PPTQ
notes: mouse TRAIP; the CDK consensus (T followed by P) points to the 15th letter; also called phosphorylated peptide; source: synthetic peptide (Peptide & Elephants)
